# B1: Hairpin Ribozyme (parent)
# chain: GUCCUCUUUCACGUGCGCGUGAAAGAGAGAAGUGAACCAGAGAAACACACGUUGUGGUAUAUUACCUGGUA
# Variants of: B1
# Experiment: self-cleavage, relative activity (ratio to wild type); higher = more cleavage; co-transcriptional
row,Variant,self-cleavage
1,GUUCUCUUUCACGUGCGCGAGAAAGAGAGAAGUGAACCAGAGAAACACACGUUGUGGUAUAUUACCUGGUA [C3U U20A],0.374
2,GUCAUCUUUCACGUGCGCGUGAAAGAGAGAAGUGAACCAGAGAAUCACACGUUGUGGUAUAUUACCUGGUA [C4A A45U],0.148
3,GUCAUCUUUCACGUGCGCGUGAAAGAGAGAAGUGAACCAGAGAAGCACACGUUGUGGUAUAUUACCUGGUA [C4A A45G],0.151
4,GUUCUCUUUCACGUGCGCGUGAAAGAGAGAAGUGAACCAGAGAAACACACGUUGUGGUAUAUUACCAGGUA [C3U U67A],0.0952
5,GUUCUCUUUCACGUGCGCGUGAAAGAGAGAAGUGAACCAGAGAAACACAUGUUGUGGUAUAUUACCUGGUA [C3U C50U],0.187
6,GUUCUCUUUCACGUGCGCGUGAAAGAGAGAAGUGAACCAGAGAAACACAGGUUGUGGUAUAUUACCUGGUA [C3U C50G],0.174
7,GUCAUCUUUCACGUGCGCGUGAAAGAGAGCAGUGAACCAGAGAAACACACGUUGUGGUAUAUUACCUGGUA [C4A A30C],0.0814
8,GUUCUCUUUCACGUGCGCGUGAAAGAGAGAAGUGAACCAGAGAAACACACGUUGUGGUAUACUACCUGGUA [C3U U62C],0.23
9,GUCAUCUUUCACGUGCGCGUGAAAGAGAGAUGUGAACCAGAGAAACACACGUUGUGGUAUAUUACCUGGUA [C4A A31U],0.245
10,GUUCUCUUUCACGUGCGCGUGAAAGAGAGAAGUGAACCAGAGAAACACACGUUGUUGUAUAUUACCUGGUA [C3U G56U],0.0961
11,GUUCUCUUUCACGUGCGCGUGAAAGAGAGAAGUGAACCAGAGAAACACACGUUGUCGUAUAUUACCUGGUA [C3U G56C],0.182
12,GUUCUCUGUCACGUGCGCGUGAAAGAGAGAAGUGAACCAGAGAAACACACGUUGUGGUAUAUUACCUGGUA [C3U U8G],0.245
13,GUCAUCUUUCACGUCCGCGUGAAAGAGAGAAGUGAACCAGAGAAACACACGUUGUGGUAUAUUACCUGGUA [C4A G15C],0.358
14,GUCAUCUUUCACGUGCGCGUGAAAGAGAGAAGUGAACCAGAGAAACACGCGUUGUGGUAUAUUACCUGGUA [C4A A49G],0.157
15,GUCAUCUUUCACGUGCGCGUGAAAGAGAGAAGUGAACCAGAGAAACACCCGUUGUGGUAUAUUACCUGGUA [C4A A49C],0.213
16,GUCAUUUUUCACGUGCGCGUGAAAGAGAGAAGUGAACCAGAGAAACACACGUUGUGGUAUAUUACCUGGUA [C4A C6U],0.143
17,GUCAUGUUUCACGUGCGCGUGAAAGAGAGAAGUGAACCAGAGAAACACACGUUGUGGUAUAUUACCUGGUA [C4A C6G],0.161
18,GUCAUCUUUCACGUGCGCGUGAAAGAGAGAAGUGAACCAGAGCAACACACGUUGUGGUAUAUUACCUGGUA [C4A A43C],0.0588
19,GUCAUCUUUCACCUGCGCGUGAAAGAGAGAAGUGAACCAGAGAAACACACGUUGUGGUAUAUUACCUGGUA [C4A G13C],0.223

row,Variant,self-cleavage
1,GUUCUCUUUCACGUGCGCGUGAAAGAGAGAAGUGAACCAGAGAAACACACGUUGUGGUAUAUUACAUGGUA [C3U C66A],0.0858
2,GUUCUCUUUCACGUGCGCAUGAAAGAGAGAAGUGAACCAGAGAAACACACGUUGUGGUAUAUUACCUGGUA [C3U G19A],0.443
3,GUUCUCUUUCACGUGCGCCUGAAAGAGAGAAGUGAACCAGAGAAACACACGUUGUGGUAUAUUACCUGGUA [C3U G19C],0.373
4,GUUCUCUUUCACGUGCGCGUGAAAGAGAGAAGUGAACCAGAGAAACACACGUUGCGGUAUAUUACCUGGUA [C3U U55C],0.153
5,GUUCUCUUUCACGUGCGCGUGAAAGAGAGAAGUGAACCAGAGAAACACACAUUGUGGUAUAUUACCUGGUA [C3U G51A],0.467
6,GUCAUCUUUCACGUGCGCGUGAAAGAGAGAAGUGACCCAGAGAAACACACGUUGUGGUAUAUUACCUGGUA [C4A A36C],0.138
7,GUUCUCUUUCACGCGCGCGUGAAAGAGAGAAGUGAACCAGAGAAACACACGUUGUGGUAUAUUACCUGGUA [C3U U14C],0.451
8,GUUCUCUUUCACGAGCGCGUGAAAGAGAGAAGUGAACCAGAGAAACACACGUUGUGGUAUAUUACCUGGUA [C3U U14A],0.495
9,GUUCUCUUUCACGUGCGCGUGAAAGAGAGAAGUGAACCAGAGAAACACACGUUGUGGUAUAUUACCUAGUA [C3U G68A],0.183
10,GUCAUCUUUCACGUGCGCGUGAAAGAGAGAAGUGAACCAGAGAAACACACGUUGUGGUAUAUUGCCUGGUA [C4A A64G],0.134
11,GUUCUCUUUCACGUGCGCGUGAAAGAGAGAAGUGAACCAGAGAAACACACGCUGUGGUAUAUUACCUGGUA [C3U U52C],0.611
12,GUUCUCUUUCACGUGCGCGUGAAAGAGAGAAGUGAACCAGAGAAACACACGGUGUGGUAUAUUACCUGGUA [C3U U52G],0.446
13,GUUCUCUUUCACGUGCGCGUGAAAGAGAGAAGUGAACCAAAGAAACACACGUUGUGGUAUAUUACCUGGUA [C3U G40A],0.169
14,GUCAUCUUUCACGUGCGCGUGAAAGAGAGAAGUGAACCAGAGAAACACACGUUGUGGUAUAUUAUCUGGUA [C4A C65U],0.137
15,GUCAUCUUUCACGUGCGCGUGAAAGAGAGAAGUGAACCAGAGAAACACACGUUGUGGUAUUUUACCUGGUA [C4A A61U],0.122
16,GUCAUCUUUCACGUGCGCGUGAAAGAGAGAAGUGAACCAGAGAAACACACGUUGUGGUAUCUUACCUGGUA [C4A A61C],0.173
17,GUCAUCUUUCACGUGCGCGUGAAAGAGAGAAGUGAACCAGAGAAACACACGUUGUGGUAUGUUACCUGGUA [C4A A61G],0.279
18,GUCAUCUUUCACGUGCGCGUGACAGAGAGAAGUGAACCAGAGAAACACACGUUGUGGUAUAUUACCUGGUA [C4A A23C],0.222
19,GUCAUCUUUCAGGUGCGCGUGAAAGAGAGAAGUGAACCAGAGAAACACACGUUGUGGUAUAUUACCUGGUA [C4A C12G],0.245

# Reference: the RNAGym collection of RNA variant scans (doi:10.7554/elife.80360)
